These results are taken from US20190194714A1, “REAGENT FOR GLUCOSE SENSOR, GLUCOSE SENSOR, METHOD FOR MANUFACTURING GLUCOSE SENSOR, AND GLUCOSE MEASURING DEVICE” (NATIONAL INSTITUTE OF ADVANCED INDUSTRIAL SCIENCE AND …, priority 2016, published 2019).

For series [1], the system named is Aspergillus terreus var. aureus FAD-GDH (flavin adenine dinucleotide glucose dehydrogenase), enzyme No. 1, host Pichia pastoris. As to the kind of experiment: Michaelis constant of FAD-GDH enzyme No. 1. Format: biochemical. The following applies: 110 kDa.
Substrate in series [2]: OC[C@H]1OC(O)[C@H](O)[C@@H](O)[C@@H]1O
The series can be described thus: Michaelis constant of FAD-GDH enzyme No. 2. The format is biochemical, Thermoascus crustaceus. The following applies: other: enzyme No. 2, host Escherichia coli, 60 kDa.

Substrate in series [3]: OC[C@H]1OC(O)[C@H](O)[C@@H](O)[C@@H]1O
As to the kind of experiment: Michaelis constant of FAD-GDH enzyme No. 4. The format is biochemical, Thermoascus crustaceus. The following applies: other: enzyme No. 4, host Saccharomyces cerevisiae, 90 kDa.

Substrate in series [4]: OC[C@H]1OC(O)[C@H](O)[C@@H](O)[C@@H]1O
As to the kind of experiment: Michaelis constant of FAD-GDH enzyme No. 3. To be noted: other: enzyme No. 3, host Pichia pastoris, 90 kDa. Format: biochemical, Thermoascus crustaceus.

On to `OC[C@H]1OC(O)[C@H](O)[C@@H](O)[C@@H]1O` (stereo partly shown) [glucose], for which the Km – broadly, the substrate concentration at which the rate is half of its maximum – in series [1] worked out at 82 mM.

B1: Thermoascus crustaceus FAD-GDH (flavin adenine dinucleotide glucose dehydrogenase), enzyme No. 2, host Escherichia coli (Thermoascus crustaceus) (protein)
chain: TSYDYIIVGGGTSGLVVANRLSEDSSVSVLVVEAGDSVYNNPNVTGTGAYGAAFGTSIDWAYQTIKQPYAGDLTQTIRAGKALGGTSTINGMAYTRAEDVQIDAWEAIGNQGWNWSTLFPYYLKSERFQIPINAQSAAGANWNPAYHGMNGPLTTGWTYEMMNGSMAEVLNATYQNLGISYLPDVNGGKMHGYTLFPRTVNRALDVREDAARAYYYPFESSRPNLSVMLNTYGNRIVWANATNTNSVTATGVEVTLSDGTVQTIQANKEVILSAGSLISPAILERSGVGNPTVLSRFGIPLVVNLTTVGENLQDQMNTEFIYLSNATFSGQSTFLGHPTAADLFGSNVTNVAKSVQSSLPHYAATVSEASNGTMSAAVLQKLFQLQYNIIFNNPTPIAEILVAPSGSKFITEYWALLPFARGNVHIGSANPLDRPVINPNYMMFEWDMQEQIASGKFVRKLYGTAPFTNWATGEATPGYSTLPANATDGQWAQWISSVSRSNFHPVGTAAMMPRDMGGVVDSNLVVYGTNNVRVIDASVLPLQVCGHLVSTLYAVAERASDLIKAGQV
Take B1: the Km in series [2] was 4.6 mM.

B2: Thermoascus crustaceus FAD-GDH (flavin adenine dinucleotide glucose dehydrogenase), enzyme No. 4, host Saccharomyces cerevisiae (Thermoascus crustaceus) (protein)
chain: B1 chain
B2: in series [3], the Michaelis constant (Km) turned out to be 3.2 mM.

B3: Thermoascus crustaceus FAD-GDH (flavin adenine dinucleotide glucose dehydrogenase), enzyme No. 3, host Pichia pastoris (Thermoascus crustaceus) (protein)
chain: B1 chain
Regarding B3, the Km in series [4] came out at 2.8 mM.
